The record followed here is patent US11491212.

Chain of Factor X (FX), P00742 (P00742 whole entry, looked up): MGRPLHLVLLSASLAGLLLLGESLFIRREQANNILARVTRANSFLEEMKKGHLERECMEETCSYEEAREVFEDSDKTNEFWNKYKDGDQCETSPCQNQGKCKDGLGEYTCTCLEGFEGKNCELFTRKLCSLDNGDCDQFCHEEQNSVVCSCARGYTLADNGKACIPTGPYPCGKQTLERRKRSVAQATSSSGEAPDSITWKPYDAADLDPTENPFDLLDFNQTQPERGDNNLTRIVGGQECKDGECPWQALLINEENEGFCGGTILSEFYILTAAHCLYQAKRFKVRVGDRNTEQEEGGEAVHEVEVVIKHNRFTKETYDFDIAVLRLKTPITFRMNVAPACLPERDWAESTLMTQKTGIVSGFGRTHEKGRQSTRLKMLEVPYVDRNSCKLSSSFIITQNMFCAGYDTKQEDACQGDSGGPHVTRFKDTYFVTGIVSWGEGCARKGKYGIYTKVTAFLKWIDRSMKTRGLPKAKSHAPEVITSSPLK
Chain of Factor X, P00742 (P00742 whole entry, looked up): as above

B1: FIXa Y155F/R318Y/T343R/R403E (protein)
chain 1: not shown
chain 2: not shown
With B1, the kcat (s^-1), activation of FX by FIXa in the Xase complex with Factor X (FX), P00742 was found to be 5 s⁻¹. Further, in the data set with Factor X, P00742, the “% of WT kcat/KM” value is on record as 154% and the kcat/KM – broadly, the turnover number divided by the Michaelis constant – turned out to be 7.1e+07 M⁻¹ s⁻¹.

B2: FIXa Y155F/K247N/N249S/T343R/E410N (protein)
chain 1: not shown
chain 2: not shown
For the protein B2, the kcat (s^-1), activation of FX by FIXa in the Xase complex with Factor X (FX), P00742 was 7.9 s⁻¹. Further, in the data set with Factor X, P00742, the “% of WT kcat/KM” value was found to be 599% and the kcat/KM turned out to be 2.8e+08 M⁻¹ s⁻¹.

B3: FIXa Y155F/K247N/N249S/R318Y/R338E/T343R (protein)
chain 1: not shown
chain 2: not shown
For B3, in the data set with Factor X (FX), P00742, the kcat (s^-1), activation of FX by FIXa in the Xase complex was 8.5 s⁻¹. Also, in the data set with Factor X, P00742, the “% of WT kcat/KM” value stood at 772% and the kcat/KM amounted to 3.6e+08 M⁻¹ s⁻¹.

B4: FIXa Y155F/K247N/N249S/R403E/E410N (protein)
chain 1: not shown
chain 2: not shown
For B4, the kcat (s^-1), activation of FX by FIXa in the Xase complex in the data set with Factor X (FX), P00742 stood at 2.7 s⁻¹. Further, in the data set with Factor X, P00742, the “% of WT kcat/KM” value was 53% and the kcat/KM was 2.4e+07 M⁻¹ s⁻¹.

B5: FIXa Y155F/T343R/R403E/E410N (protein)
chain 1: not shown
chain 2: not shown
On to B5, for which the kcat (s^-1), activation of FX by FIXa in the Xase complex in the data set with Factor X (FX), P00742 was found to be 6.6 s⁻¹. Besides, in the data set with Factor X, P00742, the “% of WT kcat/KM” value was determined as 321% and the catalytic efficiency (kcat/KM) came to 1.5e+08 M⁻¹ s⁻¹.

B6: FIXa K247N/N249S/R318Y/R338E/T343R (protein)
chain 1: not shown
chain 2: not shown
For the protein B6, in the data set with Factor X (FX), P00742, the kcat (s^-1), activation of FX by FIXa in the Xase complex is 8 s⁻¹. Further, in the data set with Factor X, P00742, the “% of WT kcat/KM” value was 840% and the kcat/KM came out at 3.9e+08 M⁻¹ s⁻¹.

B7: FIXa Y155F/R318Y/R338E/T343R (protein)
chain 1: not shown
chain 2: not shown
Regarding B7, in the data set with Factor X (FX), P00742, the kcat (s^-1), activation of FX by FIXa in the Xase complex was 7.9 s⁻¹. In the data set with Factor X, P00742, the “% of WT kcat/KM” value is on record as 771% and the kcat/KM came to 3.6e+08 M⁻¹ s⁻¹.

B8: FIXa R318Y/R338E/T343R (protein)
chain 1: not shown
chain 2: not shown
With B8, in the data set with Factor X (FX), P00742, the kcat (s^-1), activation of FX by FIXa in the Xase complex is 4.5 s⁻¹. Also, in the data set with Factor X, P00742, the “% of WT kcat/KM” value worked out at 324% and the kcat/KM was determined as 1.5e+08 M⁻¹ s⁻¹.

B9: FIXa K247N/N249S/T343R/R403E/E410N (protein)
chain 1: not shown
chain 2: not shown
On to B9, for which the kcat (s^-1), activation of FX by FIXa in the Xase complex with Factor X (FX), P00742 was 8 s⁻¹. Besides, in the data set with Factor X, P00742, the “% of WT kcat/KM” value came to 285% and the catalytic efficiency (kcat/KM) turned out to be 1.3e+08 M⁻¹ s⁻¹.

B10: FIXa Y155F/K247N/N249S/R318Y/R338E/T343R/E410N (protein)
chain 1: not shown
chain 2: not shown
As for B10, in the data set with Factor X, P00742, the “% of WT kcat/KM” value worked out at 1091% and the specificity constant (kcat/KM) is 5e+08 M⁻¹ s⁻¹.

B11: FIXa Y155F/R338E/T343R/E410N (protein)
chain 1: not shown
chain 2: not shown
As for B11, in the data set with Factor X (FX), P00742, the kcat (s^-1), activation of FX by FIXa in the Xase complex was found to be 6 s⁻¹. For the same protein, in the data set with Factor X, P00742, the “% of WT kcat/KM” value was 761% and the kcat/KM turned out to be 3.5e+08 M⁻¹ s⁻¹.

B12: FIXa Y155F/R318Y/T343R/E410N (protein)
chain 1: not shown
chain 2: not shown
As for B12, in the data set with Factor X (FX), P00742, the kcat (s^-1), activation of FX by FIXa in the Xase complex was 5 s⁻¹. In addition, in the data set with Factor X, P00742, the “% of WT kcat/KM” value is listed as 326% and the specificity constant (kcat/KM) amounted to 1.5e+08 M⁻¹ s⁻¹.
